In patent US20210388043A1 (IMMUNEONCO BIOPHARMACEUTICALS SHANGHAI, published 2021):
Values belong to the binder of their own block, whether it stands above or below them.

Biological target: T1, HY03M (human)
T1 construct: Homodimer; also called SIRPαD1-Fc (N89A)
Test: ELISA on coated FcγR; HY03M is the reference against which HY03MM was decreased (FIG. 9A)
Procedure: The binding activities of proteins of the present invention to FcγRs were tested by ELISA as follows.
The plate was left in a refrigerator at 4° C. overnight. Immediately before the test, the plate was washed by 0.05% PBS-T and then blocked by 3% skim milk for 1 hour at room temperature. […] After incubated at room temperature for 1 hour, the liquids in the plate were discarded. […] The plate was incubated at room temperature for 1 hour and then washed by the washing solutions for 5 times. Thereafter, HRP substrates were added to the plate, and the plate was left for colorimetric reaction for 10 to 20 minutes in the dark. The colorimetric reaction was terminated later using 1 N H₂SO₄, and the OD450 value was obtained in a plate reader.

T1 sequence (chain, as listed by the source limits assumed): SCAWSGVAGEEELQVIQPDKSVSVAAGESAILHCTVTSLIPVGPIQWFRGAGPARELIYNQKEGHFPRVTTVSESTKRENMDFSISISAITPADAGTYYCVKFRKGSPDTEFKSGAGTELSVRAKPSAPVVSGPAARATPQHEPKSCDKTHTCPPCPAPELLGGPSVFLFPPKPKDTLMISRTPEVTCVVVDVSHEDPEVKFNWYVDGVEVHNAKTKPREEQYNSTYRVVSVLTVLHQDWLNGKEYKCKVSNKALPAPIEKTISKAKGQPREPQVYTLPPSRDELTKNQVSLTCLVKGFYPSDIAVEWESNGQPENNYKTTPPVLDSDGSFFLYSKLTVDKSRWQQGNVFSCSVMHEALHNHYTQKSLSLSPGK

binding result: binds
B1: CD32b (FcγRIIb) (receptor, UniProt P31994 46-217, looked up)
chain: APPKAVLKLEPQWINVLQEDSVTLTCRGTHSPESDSIQWFHNGNLIPTHTQPSYRFKANNNDSGEYTCQTGQTSLSDPVHLTVLSEWLVLQTPHLEFQEGETIVLRCHSWKDKPLVKVTFFQNGKSKKFSRSDPNFSIPQANHSHSGDYHCTGNIGYTLYSSKPVTITVQAP
notes: Bought recombinant protein coated on an ELISA plate

binding result: binds
B2: CD64 (FcγRI) (receptor, UniProt P12314 16-288, looked up)
chain: QVDTTKAVITLQPPWVSVFQEETVTLHCEVLHLPGSSSTQWFLNGTATQTSTPSYRITSASVNDSGEYRCQRGLSGRSDPIQLEIHRGWLLLQVSSRVFTEGEPLALRCHAWKDKLVYNVLYYRNGKAFKFFHWNSNLTILKTNISHNGTYHCSGMGKHRYTSAGISVTVKELFPAPVLNASVTSPLLEGNLVTLSCETKLLLQRPGLQLYFSFYMGSKTLRGRNTSSEYQILTARREDSGLYWCEAATEDGNVLKRSPELELQVLGLQLPTP
notes: as for B1
